The record followed here is PMC9891255.

The target of data set [1] is T1, UPF2S (Homo sapiens, UniProt Q9HAU5 761-1227). Nature of the data set: analytical SEC.
For data set [2], the target named is T1, UPF2S. Nature of the data set: fluorescence anisotropy. For orientation: Fluorescence polarisation rises when a labelled molecule tumbles more slowly, as on binding a larger partner.
The target in data set [3] is UPF2-U1BD (Homo sapiens, UniProt Q9HAU5 1105-1227). Put plainly: fluorescence anisotropy.
Sequence of UPF2-U1BD (Q9HAU5 1105-1227): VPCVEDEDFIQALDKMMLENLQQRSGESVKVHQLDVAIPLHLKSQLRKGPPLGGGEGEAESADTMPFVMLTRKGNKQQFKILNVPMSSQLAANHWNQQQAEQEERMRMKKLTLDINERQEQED

T1 sequence (Q9HAU5 761-1227): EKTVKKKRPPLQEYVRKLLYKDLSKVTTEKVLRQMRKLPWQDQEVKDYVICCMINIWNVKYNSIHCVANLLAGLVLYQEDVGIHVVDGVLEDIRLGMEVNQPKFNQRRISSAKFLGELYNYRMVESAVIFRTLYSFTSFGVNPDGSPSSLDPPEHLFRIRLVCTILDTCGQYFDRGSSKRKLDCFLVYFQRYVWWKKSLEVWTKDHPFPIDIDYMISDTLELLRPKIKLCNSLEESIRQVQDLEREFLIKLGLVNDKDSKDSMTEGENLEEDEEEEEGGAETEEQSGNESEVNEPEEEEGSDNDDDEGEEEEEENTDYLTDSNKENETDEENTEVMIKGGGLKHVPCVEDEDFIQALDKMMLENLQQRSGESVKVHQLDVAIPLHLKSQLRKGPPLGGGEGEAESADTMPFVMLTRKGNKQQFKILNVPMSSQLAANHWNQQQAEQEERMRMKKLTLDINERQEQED

UUUUUUUUUUUUUUU (ssRNA) [U15 RNA]: the binding result in data set [1] was “no binding”.
Molecule UUUUUUUUUUUU (ssRNA) [U12 RNA] returned a Kd in data set [2] of roughly 600 nM. Moreover, in data set [3], the binding result is on record as “no binding”.

By Kd is commonly meant the free concentration of one partner at which half of the binding sites on the other are occupied at equilibrium, for simple one-to-one binding.
